Measured values as given in the supplement of paper PMC10724198.
± gives the standard deviation of the averaged measurements.
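Further: PSI is a weighted mean of sequencing reads over stability bins, variants kept only with over 10 reads, mCherry proximal and sfGFP distal, peptide attached via GGGS linker.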

Each sequence was assayed on Saccharomyces cerevisiae (assay: protein stability index of tFT-peptide fusion (C-terminal peptide) (PSI (0-1 scale)); higher = more stable (slower turnover)). Details: genetic background: wild type; temperature: 30 C.
PPPTHRDPLPTP gave a protein stability index of 0.684 ± 0.048. PPPTPSSLLSTP was tested, and the protein stability index was 0.701 ± 0.057. For PPPTSSALPALV, the protein stability index was 0.736 ± 0.037. PPPVLSLPPLPV was tested, and the protein stability index was 0.668 ± 0.028. With PPPVPLPPPRSL the protein stability index was 0.736 ± 0.055. With PPPVPPLGPSRA the protein stability index was 0.693 ± 0.044. Sequence PPQGPVAPRKTP has a protein stability index of 0.708 ± 0.018. In the case of PPQPTSPIRMPT, the protein stability index is reported as 0.735 ± 0.03. For PPRLASFYIILG, the protein stability index was 0.571. PPRLHPNTPPLL was tested, and the protein stability index was 0.765 ± 0.08. PPRPPGFPPALF gave a protein stability index of 0.697 ± 0.018. Work on PPRPPPHPAPLS yielded a protein stability index of 0.755 ± 0.019. With PPRPPRPPYPPP the protein stability index was 0.609 ± 0.024. Sequence PPRPPSPPASRA has a protein stability index of 0.77 ± 0.076. With PPRSPPPTPPLF the protein stability index was 0.611 ± 0.01. PPRVPCLVPKSR gave a protein stability index of 0.715 ± 0.014. Work on PPSAPPPLPPLL yielded a protein stability index of 0.7599 ± 0.0043. PPSAPPPSYHPP gave a protein stability index of 0.607 ± 0.045. In the case of PPSDRPTVPPPP, the protein stability index is reported as 0.709 ± 0.017. In the case of PPSFDPSPPSSL, the protein stability index is reported as 0.696 ± 0.042. PPSGPTDTQEQG was tested, and the protein stability index was 0.661 ± 0.035. With PPSLEPFSPSPR the protein stability index was 0.639 ± 0.013. In the case of PPSLLPFDPSLP, the protein stability index is reported as 0.708 ± 0.082. Work on PPSLLRPYPLLS yielded a protein stability index of 0.66 ± 0.028. PPSLPPPPLSQP was tested, and the protein stability index was 0.68 ± 0.026. In the case of PPSLPRPPAFAP, the protein stability index is reported as 0.689 ± 0.023. PPSPARFPPPSS showed a protein stability index of 0.632 ± 0.015. Sequence PPSPHPPPSAPP has a protein stability index of 0.6411 ± 0.0028. PPSPLPPPPPHP gave a protein stability index of 0.651 ± 0.079. PPSPPALPRFLL was tested, and the protein stability index was 0.697 ± 0.025. PPSPPAVISAGL was tested, and the protein stability index was 0.716 ± 0.066. With PPSPPCHTVTSA the protein stability index was 0.679 ± 0.054. In the case of PPSPPHIHTYLT, the protein stability index is reported as 0.6939 ± 0.0011. For PPSPPPPLPPPA, the protein stability index was 0.6897 ± 0.0041. Sequence PPSPPPPPPRPP has a protein stability index of 0.64 ± 0.022. In the case of PPSPSPLPPRPL, the protein stability index is reported as 0.717 ± 0.04. Work on PPSRLYFLSPRS yielded a protein stability index of 0.746 ± 0.039. In the case of PPSRPPPRLLFA, the protein stability index is reported as 0.659 ± 0.048. Sequence PPSSPPLAPPFL has a protein stability index of 0.709 ± 0.029. PPSSPPLQHPPP showed a protein stability index of 0.598 ± 0.038. PPSSPPPPDSDR gave a protein stability index of 0.6746 ± 0.0037. For PPSTNRDGRKRT, the protein stability index was 0.644 ± 0.026. Work on PPSWLPLLPPPP yielded a protein stability index of 0.688 ± 0.078. For PPSYYPPPYLAF, the protein stability index was 0.653 ± 0.034. PPTLHVSPLCPL showed a protein stability index of 0.607 ± 0.013. For PPTPPCTSSPAR, the protein stability index was 0.739 ± 0.084. In the case of PPTPRLPPPRLP, the protein stability index is reported as 0.67 ± 0.045. For PPTQSRLPLPLL, the protein stability index was 0.674 ± 0.033. Sequence PPVISAPIPLAP has a protein stability index of 0.688 ± 0.052. PPVLRTPPAPLI gave a protein stability index of 0.681 ± 0.058. Work on PPVPPPSPPRLL yielded a protein stability index of 0.673 ± 0.03. In the case of PPVTAPPPPLRS, the protein stability index is reported as 0.692 ± 0.014. In the case of PQAQCTALLTQR, the protein stability index is reported as 0.659 ± 0.085. Work on PQESRAWTLSSA yielded a protein stability index of 0.713 ± 0.05. PQPRDSLFSLGN was tested, and the protein stability index was 0.691 ± 0.032. For PQRRPPASTRSD, the protein stability index was 0.682 ± 0.018. PQRTTPPRRHTA gave a protein stability index of 0.717 ± 0.032. PQTPPSTLLLPP was tested, and the protein stability index was 0.61 ± 0.1. PRALSMGGPRYQ showed a protein stability index of 0.5929 ± 0.0021. For PRAPPPSPPPRP, the protein stability index was 0.651 ± 0.04. Work on PRCRSLPPLRVL yielded a protein stability index of 0.6975 ± 0.0037. With PRDTTIPLVLGF the protein stability index was 0.63756 ± 0.00037. Work on PRFFTRYRCYSA yielded a protein stability index of 0.793 ± 0.064. With PRFGADVQKLVG the protein stability index was 0.653 ± 0.045. For PRFPLPPHPSPR, the protein stability index was 0.704 ± 0.03. PRGKVLPFAFAC gave a protein stability index of 0.554 ± 0.019. For PRGLRIHSRLRG, the protein stability index was 0.678 ± 0.01. Sequence PRGPPGILSRPP has a protein stability index of 0.6736 ± 0.00089. PRGSSRSTFFLF was tested, and the protein stability index was 0.603 ± 0.046. PRHYSPPPVPSR was tested, and the protein stability index was 0.686 ± 0.026. With PRIWDLVDIGTL the protein stability index was 0.735 ± 0.022. Work on PRLCLVAGRCRS yielded a protein stability index of 0.614 ± 0.04. Work on PRLFLSICPFSF yielded a protein stability index of 0.682 ± 0.051. Sequence PRLPHPPPFDSL has a protein stability index of 0.676 ± 0.016. Work on PRLPHPPPPLPL yielded a protein stability index of 0.669 ± 0.079. For PRLPPRSPRPPA, the protein stability index was 0.7369 ± 0.0048. PRLVFSVSSLGL gave a protein stability index of 0.7 ± 0.038. For PRLVTLALPRTR, the protein stability index was 0.716 ± 0.015. Sequence PRPALRPLPVYP has a protein stability index of 0.612 ± 0.068. For PRPAPPPPSTPP, the protein stability index was 0.6411 ± 0.0051. With PRPCSPPPPDPC the protein stability index was 0.703 ± 0.022.
